Source: patent publication US20250026815A1
Where two headings read alike, the source gives them in different places.

Legend:
[1] = target: RSV-F protein of RSV A2 virus (as carried by the live virus in the neutralisation assay) (human respiratory syncytial virus, strain A2) (UniProt P03420); experiment: cell-based or functional assay
[2] = target: RSV-F protein of RSV B9320 virus (as carried by the live virus in the neutralisation assay) (human respiratory syncytial virus, strain B9320); experiment: cell-based or functional assay
[3] = target: RSV-F protein of RSV A Long virus (as carried by the live virus in the neutralisation assay) (human respiratory syncytial virus, strain A Long) (UniProt P12568); experiment: cell-based or functional assay
[4] = target: recombinant RSV-F protein (RSV A2 strain fusion (F) protein with added His tag) (human respiratory syncytial virus, A2 strain) (UniProt P03420); experiment: SPR (Biacore), antibody captured, RSV-F as analyte; column head prints nM, Kd/Ka gives M
recombinant RSV-F protein (RSV A2 strain fusion (F) protein with added His tag) (human respiratory syncytial virus, A2 strain), sequence (P03420 26-109, chain 1 of 2): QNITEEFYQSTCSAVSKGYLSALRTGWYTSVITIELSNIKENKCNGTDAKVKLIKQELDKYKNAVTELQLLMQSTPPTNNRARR
recombinant RSV-F protein (RSV A2 strain fusion (F) protein with added His tag) (human respiratory syncytial virus, A2 strain), sequence (P03420 137-524, chain 2 of 2): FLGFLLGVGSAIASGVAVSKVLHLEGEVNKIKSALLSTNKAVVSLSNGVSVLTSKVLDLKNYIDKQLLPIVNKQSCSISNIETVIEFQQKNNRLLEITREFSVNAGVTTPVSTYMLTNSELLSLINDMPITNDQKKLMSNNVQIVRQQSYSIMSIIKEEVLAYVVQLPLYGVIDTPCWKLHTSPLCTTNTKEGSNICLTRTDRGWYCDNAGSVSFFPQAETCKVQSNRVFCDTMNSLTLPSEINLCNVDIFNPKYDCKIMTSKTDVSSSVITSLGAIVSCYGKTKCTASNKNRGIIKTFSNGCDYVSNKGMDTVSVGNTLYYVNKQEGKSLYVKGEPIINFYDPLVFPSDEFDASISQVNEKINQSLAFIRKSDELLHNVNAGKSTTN

[5] = target: recombinant RSV-F protein (RSV A2 strain fusion (F) protein with added His tag) (human respiratory syncytial virus, A2 strain) (UniProt P03420); experiment: SPR (Biacore), antibody captured, RSV-F as analyte
[6] = target: RSV-F protein of RSV A2 virus (as carried by the live virus in the neutralisation assay) (human respiratory syncytial virus, strain A2) (UniProt P03420); experiment: cell-based or functional assay; remark: listed apart in the source
[7] = target: RSV-F protein of RSV B9320 virus (as carried by the live virus in the neutralisation assay) (human respiratory syncytial virus, strain B9320); experiment: cell-based or functional assay; remark: listed apart in the source
[8] = target: RSV-F protein of RSV A Long virus (as carried by the live virus in the neutralisation assay) (human respiratory syncytial virus, strain A Long) (UniProt P12568); experiment: cell-based or functional assay; remark: listed apart in the source

RSV-F protein of RSV A2 virus (as carried by the live virus in the neutralisation assay) (human respiratory syncytial virus, strain A2), sequence (P03420 26-574): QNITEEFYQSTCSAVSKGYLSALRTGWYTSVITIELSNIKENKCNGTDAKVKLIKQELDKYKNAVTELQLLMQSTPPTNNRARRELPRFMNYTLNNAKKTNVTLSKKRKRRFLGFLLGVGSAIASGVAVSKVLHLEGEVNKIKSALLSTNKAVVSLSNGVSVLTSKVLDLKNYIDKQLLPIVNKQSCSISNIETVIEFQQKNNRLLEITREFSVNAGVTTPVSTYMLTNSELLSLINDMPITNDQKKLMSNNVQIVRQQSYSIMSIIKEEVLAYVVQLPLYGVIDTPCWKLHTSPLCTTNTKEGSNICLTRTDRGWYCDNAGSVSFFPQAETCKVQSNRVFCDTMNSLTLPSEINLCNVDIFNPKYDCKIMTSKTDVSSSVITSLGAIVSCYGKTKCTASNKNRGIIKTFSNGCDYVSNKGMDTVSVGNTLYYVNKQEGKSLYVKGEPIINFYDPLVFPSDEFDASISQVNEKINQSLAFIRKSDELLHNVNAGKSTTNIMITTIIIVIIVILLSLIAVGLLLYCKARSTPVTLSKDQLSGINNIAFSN

Palivizumab (antibody)
Absolute IC50, neutralizing RSV A2 (HEp-2 cells, indirect ELISA) [1]: 1.06 µg/mL | Absolute IC50, neutralizing RSV B9320 (HEp-2 cells, indirect ELISA) [2]: 1.07 µg/mL | Absolute IC50, neutralizing RSV A Long (HEp-2 cells, indirect ELISA) [3]: 0.232 µg/mL | Kd [4]: 0.0628 nM | kon [5]: 1.2e+06 M⁻¹ s⁻¹ | Absolute IC50, neutralizing RSV A2 (HEp-2 cells, indirect ELISA) [6]: 3.04 µg/mL | Absolute IC50, neutralizing RSV B9320 (HEp-2 cells, indirect ELISA) [7]: 0.481 µg/mL | Absolute IC50, neutralizing RSV A Long (HEp-2 cells, indirect ELISA) [8]: 1.59 µg/mL
